To fix the notation:
B1: Azoarcus group I ribozyme (parent)
chain: GUGCCUUGCGCCGGGAAACCACGCAAGGGAUGGUGUCAAAUUCGGCGAAACCUAAGCGCCCGCCCGGGCGUAUGGCAACGCCGAGCCAAGCUUCGGCGCCUGCGCCGAUGAAGGUGUAGAGACUAGACGGCACCCACCUAAGGCAAACGCUAUGGUGAAGGCAUAGUCCAGGGAGUGGCGAAAGUCACACAAACCGG

This data set covers variants of B1. The data set can be described thus: reverse-splicing fitness (ratio to wild type); higher = more active; in vitro selection; Mg2+ level not given. Put shortly:
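An in vitro group I ribozyme library with randomized positions was T7-transcribed and gel-purified. In triplicate, 10 pmol RNA in EPPS pH 7.5 was reacted with 50 pmoles of a 30-nt RNA substrate for 1 h at 37 °C across several added MgCl2 levels (1–48 mM), then stopped with EDTA. Products were reverse transcribed from a substrate-complementary primer, PCR-amplified and sequenced (HiSeq 4000). Fitness is a variant's read proportion after selection over that before, normalised to wild type.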
Turning to C82A A111C A120C A145C C150U C169A U176C, the reverse-splicing fitness was 0.0112.

C82A A111C A120C C150A C169U: the reverse-splicing fitness was determined as 0.0133.

For the variant C82A A111C A120C C150A C169G, the reverse-splicing fitness was determined as 0.00949.

Regarding C82A A111C A120C C150A C169A, the reverse-splicing fitness worked out at 0.0111.

Turning to C82A A111C A120C A145U C169U U176A, the reverse-splicing fitness was determined as 0.0155.

Regarding C82A A111C A120C A145U C169U U176C, the reverse-splicing fitness was found to be 0.0141.

On to C82A A111C A120C A145U C169U U176G, for which the reverse-splicing fitness came out at 0.00589.

Consider C82A A111C A120G A145C C150G U176C, for which the reverse-splicing fitness stood at 0.0141.

In the case of C82A A111C A120G A145C C150G U176G, the reverse-splicing fitness came out at 0.00311.

With C82A A111C A120G A145C C150G U176A, the reverse-splicing fitness came to 0.00683.

On to C82A A111C A120G A145G C150A C169A U176C, for which the reverse-splicing fitness came to 0.0231.

Take C82A A111C A120G A145G C150A C169A U176A: the reverse-splicing fitness amounted to 0.0181.

As for C82A A111C A120G A145G C150A C169A U176G, the reverse-splicing fitness came to 0.00667.

On to C82A A111C A120C A145G C150U C169G U176G, for which the reverse-splicing fitness is 0.00711.

As to C82A A111C A120C A145G C150U C169G U176A, the reverse-splicing fitness amounted to 0.0127.

Turning to C82A A111C A120C A145G C150U C169G U176C, the reverse-splicing fitness came to 0.0166.

As to C82A A111C A120C A145G C169A U176A, the reverse-splicing fitness came out at 0.0249.

As for C82A A111C A120C A145G C169A U176G, the reverse-splicing fitness came out at 0.00684.

With C82A A111C A120C A145G C169A U176C, the reverse-splicing fitness was 0.0288.

C82A A111C A120G A145G C150G U176G: the reverse-splicing fitness was found to be 0.00573.

Regarding C82A A111C A120G A145G C150G U176A, the reverse-splicing fitness turned out to be 0.00663.

Take C82A A111C A120G A145G C150G U176C: the reverse-splicing fitness is 0.0111.

For C82A A111C A120C A145U C150U C169U U176G, the reverse-splicing fitness stood at 0.00824.

For C82A A111C A120C A145U C150U C169U U176C, the reverse-splicing fitness was 0.0133.

Regarding C82A A111C A120C A145U C150U C169U U176A, the reverse-splicing fitness came to 0.0135.

Take C82A A111C A120C A145C C169G: the reverse-splicing fitness was 0.00972.

With C82A A111C A120C A145C C169A, the reverse-splicing fitness worked out at 0.00691.

As to C82A A111C A120C A145C C169U, the reverse-splicing fitness was 0.0116.

For C82A A111C A120C A145U C150A C169A U176C, the reverse-splicing fitness is 0.0154.

Regarding C82A A111C A120C A145U C150A C169A U176G, the reverse-splicing fitness worked out at 0.00859.

As for C82A A111C A120C A145U C150A C169A U176A, the reverse-splicing fitness amounted to 0.0155.

Take C82A A111C A120C A145C C169G U176A: the reverse-splicing fitness is 0.0258.

C82A A111C A120C A145C C169G U176C: the reverse-splicing fitness is 0.0213.

In the case of C82A A111C A120C A145C C169G U176G, the reverse-splicing fitness was found to be 0.0074.

Take C82A A111C A120C C150G C169G U176C: the reverse-splicing fitness is 0.00606.

As for C82A A111C A120C C150G C169G U176G, the reverse-splicing fitness was 0.00646.

As to C82A A111C A120C C150G C169G U176A, the reverse-splicing fitness was found to be 0.00786.

As for C82A A111C A120G A145C, the reverse-splicing fitness worked out at 0.0129.

C82A A111C A120G A145G: the reverse-splicing fitness turned out to be 0.0153.

For C82A A111C A120C A145U C169G U176C, the reverse-splicing fitness is 0.0178.

Turning to C82A A111C A120C A145U C169G U176A, the reverse-splicing fitness came out at 0.0151.

On to C82A A111C A120C A145U C169G U176G, for which the reverse-splicing fitness came to 0.00709.

In the case of C82A A111C A120C A145G C169G U176A, the reverse-splicing fitness worked out at 0.0212.

For C82A A111C A120C A145G C169G U176G, the reverse-splicing fitness turned out to be 0.00694.

As to C82A A111C A120C A145G C169G U176C, the reverse-splicing fitness was 0.0247.

In the case of C82A A111C A120C C150G C169A U176C, the reverse-splicing fitness amounted to 0.0121.

Regarding C82A A111C A120C C150G C169A U176A, the reverse-splicing fitness was 0.00991.

As for C82A A111C A120C C150G C169A U176G, the reverse-splicing fitness stood at 0.00778.

As for C82A A111C A120G A145C C150A C169G U176C, the reverse-splicing fitness is 0.0145.

Regarding C82A A111C A120G A145C C150A C169G U176A, the reverse-splicing fitness came to 0.0253.

For the variant C82A A111C A120G A145C C150A C169G U176G, the reverse-splicing fitness was 0.00557.

C82A A111C A120C A145U C150A C169U: the reverse-splicing fitness turned out to be 0.0124.

Turning to C82A A111C A120C A145U C150A C169G, the reverse-splicing fitness was 0.00824.

Take C82A A111C A120C A145U C150A C169A: the reverse-splicing fitness amounted to 0.00876.

C82A A111C A120C C150U C169A: the reverse-splicing fitness stood at 0.0121.

Consider C82A A111C A120C C150U C169G, for which the reverse-splicing fitness was found to be 0.00849.

Regarding C82A A111C A120C C150U C169U, the reverse-splicing fitness was determined as 0.0115.

For the variant C82A A111C A120C A145G C150U C169A U176G, the reverse-splicing fitness amounted to 0.00826.

Consider C82A A111C A120C A145G C150U C169A U176C, for which the reverse-splicing fitness amounted to 0.0162.

For the variant C82A A111C A120C A145G C150U C169A U176A, the reverse-splicing fitness came out at 0.0159.

With C82A A111C A120C A145G C150A U176A, the reverse-splicing fitness was 0.00956.

Take C82A A111C A120C A145G C150A U176G: the reverse-splicing fitness was determined as 0.00865.

Regarding C82A A111C A120C A145G C150A U176C, the reverse-splicing fitness is 0.0232.

For the variant C82A A111C A120C C150A C169A U176A, the reverse-splicing fitness amounted to 0.0196.

As to C82A A111C A120C C150A C169A U176G, the reverse-splicing fitness was 0.00827.

As for C82A A111C A120C C150A C169A U176C, the reverse-splicing fitness worked out at 0.0181.

Consider C82A A111C A120C C169G U176C, for which the reverse-splicing fitness was determined as 0.0233.

On to C82A A111C A120C C169G U176A, for which the reverse-splicing fitness was 0.0174.

As for C82A A111C A120C C169G U176G, the reverse-splicing fitness is 0.00756.

Regarding C82A A111C A120C A145G C150A C169G U176C, the reverse-splicing fitness came out at 0.0238.

With C82A A111C A120C A145G C150A C169G U176A, the reverse-splicing fitness came out at 0.0172.

Consider C82A A111C A120C A145G C150A C169G U176G, for which the reverse-splicing fitness amounted to 0.00821.

Turning to C82A A111C A120G A145C C169U U176A, the reverse-splicing fitness amounted to 0.0138.

Take C82A A111C A120G A145C C169U U176C: the reverse-splicing fitness turned out to be 0.00921.

Take C82A A111C A120G A145C C169U U176G: the reverse-splicing fitness is 0.00467.

Take C82A A111C A120C A145U C150U C169G U176C: the reverse-splicing fitness turned out to be 0.015.

On to C82A A111C A120C A145U C150U C169G U176A, for which the reverse-splicing fitness was 0.0127.

C82A A111C A120C A145U C150U C169G U176G: the reverse-splicing fitness came out at 0.00815.

Consider C82A A111C A120G A145C C150A C169G, for which the reverse-splicing fitness worked out at 0.00754.

Consider C82A A111C A120G A145C C150A C169U, for which the reverse-splicing fitness amounted to 0.00671.

On to C82A A111C A120G A145C C150A C169A, for which the reverse-splicing fitness amounted to 0.00794.

For C82A A111C A120C C150U C169G U176A, the reverse-splicing fitness came out at 0.0139.

In the case of C82A A111C A120C C150U C169G U176G, the reverse-splicing fitness came out at 0.00721.

Regarding C82A A111C A120C C150U C169G U176C, the reverse-splicing fitness stood at 0.016.
